Assay results published in the nanobody polyreactivity screen of Harvey et al. (2022).

Assay: yeast display, Sf9 membrane polyspecificity reagent, FACS + sequencing; frameworks hold sequencing errors
Outline: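 In a synthetic yeast display library (Saccharomyces cerevisiae BJ5465), nanobody expression was induced with galactose for 36–48 hours. FACS gates were set low and high (top ~1%) using anti-HA fluorescence for expression and streptavidin fluorescence for binding of the Sf9 membrane reagent. Each polyreactivity label is drawn from the gate of origin.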

Sequence	polyreactivity (PSR sort gate)
QVQLVESGGGLVQAGGSLRLSSAATGSIIGFYAMGWYRQAPGKERELVAAITRGGGSTFYADSVKGRFTISRDNAKNTVYLQINSLKPEDTAVYYCAATVYRYHGPGYYYWGQGTQVTVSS	high polyreactivity
QVQLVESGGGLVQAGGSLRLSSAGSGRIFGYYAMGGYRQAPGTETELVAAISSNGGSTYYADSVKGRFTISRDNANNTVYLQMNSLQPEDTAVYYCKVYFYSRHYFYRGDYWGQGTQVTVSS	high polyreactivity
QVQLVESGGGLVQAGGSLRLSSAPSGRIFDHYAMGWYRQAHGKERELGAAITRSGGITYYADSVKGRFTISRDNAKNTVYLQMNSLKPEDTAVYYCAALSYRYTDKFDYWGQGTQVTVSS	low polyreactivity
QVQLVESGGGLVQAGGSLRLSSAPSGSTYYVYDMGWYRQAPGKERELVAAITSGGSTNNADSVKGRFTISRDNAKNTVYLEMKSLKPVDTAVYYCAAQGRVWDSYGYEYVQEVTRDYWGQGTQVNVSS	low polyreactivity
QVQLVESGGGLVQAGGSLRLSSDASGFIIANNALGWYRQAPVKERELVAAISRSGGRTYYADSVKGRFTISRDNGKKTVYLQMNSLKTEDTAVYYCVADRTDTSNYWGQGTQVTVSS	high polyreactivity
QVQLVESGGGLVQAGGSLRLSWAASGFGWYAMGWYRQAPGKEREFVAAISRGGGSTYYADSVKGRFTISRDNAKNTVYLQMNSLKPEDTAVYYCAAVYYRRISQGDTQTYYQYNYWGQGTQVTVSS	high polyreactivity
QVQLVESGGGLVQAGGSLRLSWAASGHTFHGYDMGWYRQEPGKERDLVAAITSTGGSTHYSDSVKGRFTISRDNAKNTVYLQMNSLKPEDTAVFFCANRSYGLTRAYSAGNFWGQGTQVTVSS	low polyreactivity
QVQLVESGGGLVQAGGSLRLSWAASGITFYGNAMGWYRAAPGKEREFVAAISTRDGTTYADSVKGRFTISRDNAKNTVYLQRNSLKPEDTAVYYCAAAYYYDGQQGDFAYWGQGTQVTVSS	low polyreactivity
QVQLVESGGGLVQAGGSLRLSWAASGNTFNNNPMGWYRQAPGKERELVAAISGSGGSTYYADSVKGRFTISRDNAKNTVYLQLNSLKPEDTAGYYCAVRLVHGGKRYVYWGQGTQVTVSS	high polyreactivity
QVQLVESGGGLVQAGGSLRLSWAASGPTCGQLAMVWYRQAPGKERELVAAISYSGARTYYADSVKGRFTISRDNAKNTVDLQMNSLIPQDTAVKYCNAYSAYVNGNRRGLGYWGQGTHVTVSS	high polyreactivity
QVQLVESGGGLVQAGGSLRLSWAASGSSFFRNAMGGYSQAPGKERELVASISRSGGSTYYADSVKGRFTISRDNAKNTVYLQMNSLKPEDTAVSYCAKKPNTQTSYWYYYWGQGTQVTVST	high polyreactivity
QVQLVESGGGLVQAGGSLRLSWAASGSTFIGYAMGWYRQAPGKERELVAAISWSGGLTYYADSVKGRFTFSRDNAKNTVYLQMNSLKPEDTAVYYCNTVPYGISVQFNYWGQGTQVTVSS	high polyreactivity
QVQLVESGGGLVQAGGSLRLSWAASGSTFQSYAMGLSRQAPGKERELVAAISFSGGSTYYADSVKGRFTISRDNAKNTVYLQMHSLKPEDTAVYYCAADVAYVEYDYWGQGTQVTVSS	low polyreactivity
QVQLVESGGGLVQAGGSLRLSWAASGSTFRNYAMGWYRQAPGKEREFVAAISRSGGSTYYADSVKGRFTISRDNANNPVYLQMISLKPEETAVYYCNKESFWGPDNYWGQGTQETVSS	high polyreactivity
QVQLVESGGGLVQAGGSLRLSWAAYGRNFRPNTMGWYRQAPGKEREMVAAISRSGGSTYYADSVKARFTISRDNAKNTVYLQMNSLKPEDTAVYYCAKRYGGIVGVGAYKYEYWGQGTQVTVSS	high polyreactivity
QVQLVESGGGLVQAGGSLRLSWATSGFILLDNALGWYRQAPGKESEFVASINISGDRTFYADSVKGRFTISRDNAKNTVYLQMNSLKAEDTAVYYCAKEPGWGRRSTTAYDYWGQGTQVTVSS	low polyreactivity
QVQLVESGGGLVQAGGSLRLTCAASGFIFAYYVMGWYRQAPGKERELVAAITSSDGITYYADSVKGRFTISRDNAKNTVYLQMNSLKPEDTAVYYCNADVYPDVGWRESDYWGQGTQVTVSS	low polyreactivity
QVQLVESGGGLVQAGGSLRLTCAASGFIFGANTRGWYRQAPGKERELVATISWSGGSTYYADSVKGRFTISRDNAKMTVYLQMNSLKPEVTAVYYCAAPGVTYGFRSVYWGQGTQVTVSS	low polyreactivity
QVQLVESGGGLVQAGGSLRLTCAASGFIFPLYTMGWYRQAPGKERELVAAITGSGGSTYYADSVKGRFTISRDNAKNTVYLQMNSLKPEDTAVYYCAKDYTYGMDWGQGTQVTVSS	low polyreactivity
QVQLVESGGGLVQAGGSLRLTCAASGFIFRYYAMGWYRPATGKEMELVAAISRGGSTNYADSVKGRFTISRDNAKYTVYLQMNSLKPEDTAVYYCASRKGRSKQGYYYWGQGTQVTVSS	high polyreactivity

Sequence	polyreactivity (PSR sort gate)
QVQLVESGGGLVQAGGSLRLTCAASGFIFRYYAMGWYRQAPGKERELVAAISRSGGSTYYADSVKGRFTISRDNAKNTVYLQMNSLKPEDTAVYYCAAKDGRSYYDRTPMDYWGQGTQVTVSS	low polyreactivity
QVQLVESGGGLVQAGGSLRLTCAASGFIIKFYDMGWYRQAPGKERELVATITFSSGTTYYADSVKGRFTISRDNAKNTVYLQMNSLKPEDTAVYYCAAYTLPAWPYDGPAGPRYDYWGQGTQVTVSS	low polyreactivity
QVQLVESGGGLVQAGGSLRLTCAASGFILSSNAMGWYRQAPGKERELVAAITRSGGSTYYADSVKGRFTISRDNAKNTVYLEMNSLKPEDTAVYYCNRLYYSGSGASLDYWGQGTQVTVSS	high polyreactivity
QVQLVESGGGLVQAGGSLRLTCAASGFIYPYYAMGWYRQATGKERELVATNTRSGGSTYYADSVKGRFTISLDNAKNNVYLQMNSVKQEDSAVYSCAADIYWYRGYGFWGQGTQVTVSS	high polyreactivity
QVQLVESGGGLVQAGGSLRLTCAASGFTFGTYAMGWYRQAPGKERELVAAITWSGGSTYYADSVKGRFTISRDNAKNTVYLQMNSLKPEDTAVYYCAAESADYNDGDYWGQGTQVTVSS	low polyreactivity
QVQLVESGGGLVQAGGSLRLTCAASGGTFQPNAMGGYRQAPGKERELVAAISWSDGSTYYADSVKGRFTISRDNAKNTVYLQMKSLKPVDTAVYYCAADFTYYDSPYRDYNYESWGQGTQVTVSS	low polyreactivity
QVQLVESGGGLVQAGGSLRLTCAASGGTIFPNAMGWYRQAPGKEMELVATITSSDTTNYADSVKGRFTISRDNAMNTVYLQMNSLKTEDTAVYYCDASFKLRYWDYYYWGQGTQVTVSS	low polyreactivity
QVQLVESGGGLVQAGGSLRLTCAASGGTLDYNAMGWYRQAPGKERELVAPISAGADGTYYADSVKGRFTISRDNAKNTVYLQMNSLKPEDSAVYYCAARPKNNWARTNFGIRYNDWGQGTQVTVSS	high polyreactivity
QVQLVESGGGLVQAGGSLRLTCAASGIIFDKNAMGWYRQAPGKERELVAVITRGGSTYYADSVKGRFTISRDNAKNTVYLQMNSLKPEDTAVYYCAARYTPGFGYWGQGTQVTVSS	high polyreactivity
QVQLVESGGGLVQAGGSLRLTCAASGIIFSGYAMGWYRQAPGTERELVASIRSGSNTYYADSVKGRITISRDNAKYTVYFQMNSLKPEDTGVYYCAADIEYSYFQVFSYNYEYWGQGSQVTVSS	low polyreactivity
QVQLVESGGGLVQAGGSLRLTCAASGIILVAYPMGWYRQAPGKERELVAAITTSGTSTYYADSVKGRFTISRDNAKNTGYVQMNSLKPEDTAVYYCAVRQRYGPARYDYWGQGTQVTVSS	high polyreactivity
QVQLVESGGGLVQAGGSLRLTCAASGIIYYVYAMVWYRQAPGKERELVAAITSGGTTYYADSVKGRFTISRDNAKNTVYLQMNSLKPEDTAVYYCAAARGGGRTYGYWGQGTQVTVSS	high polyreactivity
QVQLVESGGGLVQAGGSLRLTCAASGITFCIYVMGWYRQAPGKEREVVATISRSDDNTYYADSVKGRFTISRDNAKNTVYLQMYCLKPEDTAVYYCAADGVISAWYSSRDDYWGQGTQVTVSS	low polyreactivity
QVQLVESGGGLVQAGGSLRLTCAASGITFDLNAKGWYRQAPGKERELVAAIFRGGSTYYADSVKGRFTISRDNAKNTVYLQMNSLKPEDTAVYYCAAAYYRVGRAYPHEAYDYWGQGTQVTVSS	low polyreactivity
QVQLVESGGGLVQAGGSLRLTCAASGITFKYKAMGWYRQAPGKEWELVAAISKGGGSTYYADSVKGRFTISRDNAKNTVYLQMNSLKPEVTAVYYCNAVPRRPVVSDTNPVGYDYWGEGTQVTVSS	low polyreactivity
QVQLVESGGGLVQAGGSLRLTCAASGLIFVDNAMGWYRQAPGKERELVAAIDSGGSTNYADSVKGRFTISRDNAKNTVYLPMNSLKPEDTAVYYCAAEYVRFYWYTSDYWGQGTQVTVSS	low polyreactivity
QVQLVESGGGLVQAGGSLRLTCAASGLIFYAYAMGWYRPAPWKERELVAAITSGGDTNYADSVKGRFTISRDNAKNTVYLQMNSLKPEDTAVYYCNADPPVFQSVYWRWYHNYDYWGQGTQVTLSS	low polyreactivity
QVQLVESGGGLVQAGGSLRLTCAASGLIFYDNMGWYRQEPGKQRELVAAITVSGGATYYADSVKGRFTISRDNAKNTVYLQMNSLKTEDTAVFYCARELLSPTYQRWYYYWGQGTQVTVSS	low polyreactivity
QVQLVESGGGLVQAGGSLRLTCAASGLTFSYNAMGWYRQAPGKERELVAAITVSGGRTYYADSVKGRFTISRDNAKNTVYLQMNSLKPEDTAVYYCNADYDEGYYGYLRYDYDYWGQGTQVTVSS	high polyreactivity
QVQLVESGGGLVQAGGSLRLTCAASGNIFSTYAMGWYRQAPGKERELVASISENGGSTYYADSVKGRFSISRDNAKTTVYLQMNSLKPEHTAVYYCNKDYYYPNSWPKYVYWGQGTQVTLSS	low polyreactivity
